Here are results for 31 molecules from patent US7026443.

The target of assay [1] is HLA-A*1101 (purified HLA class I molecule) (human). In words: competition with 125I-labelled standard peptide for purified HLA-A*1101, gel filtration.
Assay [2] has as its target HLA-A*2402 (human). In words: competition with 125I-labelled standard peptide for purified HLA, gel filtration.
The target of assay [3] is HLA-B*5401 (human). Description: competition with 125I-labeled standard peptide for purified HLA, gel filtration.
Assay [4] has as its target HLA-B*5301 (human). The assay is described as above.
The target of assay [5] is HLA-B*5101 (human). The description is as above.
Assay [6] deals with HLA-B*0702 (human). The assay is described as above.
The target of assay [7] is HLA-B*3501 (human). The description is as above.
The target in a further assay is HLA-A*6801 (human). Description: competition with 125I-labelled standard peptide for purified HLA, gel filtration.
In assay [8] the target is HLA-A*0301 (human). The description is as above.
For a further assay, the target named is HLA-A*3301 (human). Described as above.
Assay [9] concerns the target HLA-A*1101 (human). The assay is described as above.
In assay [10] the target is HLA-A*0301 (human). In words: inhibition of 125I-labeled standard peptide binding to purified HLA, gel filtration.
The target of assay [11] is HLA-A*1101 (human). The description is as above.
Assay [12] addresses HLA-A*2402 (human). Description: competition with 125I-labelled standard probe peptide for purified HLA-A*2402, gel filtration.
Assay [13] has as its target HLA-A*2402 (human). Description: competition with 125I-labelled standard peptide for purified HLA-A*2402, gel filtration.
Assay [14] deals with HLA-B*5401 (human). In words: competition with 125I-labeled standard probe peptide for purified HLA, gel filtration. Particulars: for relative binding ratio: scale: ratio.
For assay [15], the target named is HLA-B*5301 (human). The assay is described as above. Conditions: for relative binding ratio: scale: ratio.
In assay [16] the target is HLA-B*5101 (human). The description is as above. Particulars: for relative binding ratio: scale: ratio.
For assay [17], the target named is HLA-B*0702 (human). Described as above. Conditions: for relative binding ratio: scale: ratio.
Assay [18] deals with HLA-B*3501 (human). Described as above. Conditions: for relative binding ratio: scale: ratio.
A further assay concerns the target HLA-A*0101 (human). Description: competition with 125I-labelled standard peptide 944.02 ([..]) for purified HLA-A*0101, gel filtration. Particulars: remark: other sources report otherwise.
The target of assay [19] is HLA-A*0201 (purified HLA class I molecule) (human).
Assay [20] addresses HLA-A*0301 (human). In words: competitive inhibition of 125I-labelled standard peptide binding to purified HLA-A*0301, gel filtration. Particulars: remark: other sources report otherwise.
For assay [21], the target named is HLA-A*0301 (human). In words: competition with 125I-labeled standard peptide for purified HLA-A*0301, gel filtration.
The mark [22] stands for this setting: remark: other sources report otherwise.

Where two headings read alike, the source gives them in different places.

As to RARQERLQR (modifications not checked) [HPV18 E6 144-152 peptide …], the relative binding ratio (IC50 of standard peptide / IC50 of test peptide) in [1] was 0.0002.

VFEFAFKDLF (modifications not checked) [HPV18 E6 position 44, 10-mer …]: in the assay with HLA-A*2402 (human) [2], the binding affinity ratio (IC50 of standard peptide / IC50 of test peptide) came to 0.036.

With EPPKLRSTAA (modifications not checked) [HPV16 E1 308 …], the binding affinity ratio (IC50 of standard peptide / IC50 of test peptide) with HLA-B*5401 (human) [3] came to 0.02; with HLA-B*5301 (human) [4], 0.0002; in the assay with HLA-B*5101 (human) [5], 0.0002; in the assay with HLA-B*0702 (human) [6], 0.0002; with HLA-B*3501 (human) [7], 0.0003.

In the case of VYCKTVLEL (modifications not checked) [HPV18 E6 position 33, 9-mer …], in the assay with HLA-A*2402 (human) [2], the binding affinity ratio (IC50 of standard peptide / IC50 of test peptide) is 0.022.

For TTLEQQYNK (modifications not checked) [HPV16 E6 peptide …], the binding affinity ratio (IC50 of standard peptide / IC50 of test peptide) with HLA-A*6801 (human) was 0.3; with HLA-A*0301 (human) [8] it was 0.01; in the assay with HLA-A*3301 (human) it was 0.066; with HLA-A*1101 (human) [9], 0.29.

LTNILNVLK (modifications not checked) [HPV16 E1 peptide … (position 191, 9 amino acids)]: the binding affinity ratio (IC50 of standard peptide / IC50 of test peptide) with HLA-A*0301 (human) [10] stood at 0.0086; in the assay with HLA-A*1101 (human) [11] it was 0.42.

Regarding PLNPAEKLR (modifications not checked) [HPV18 E6 111-119 peptide …], the relative binding ratio (IC50 of standard peptide / IC50 of test peptide) in assay [1] came out at 0.0005.

Regarding QYNKPLCDL (modifications not checked), the relative binding ratio (IC50 of standard peptide / IC50 of test peptide) with HLA-A*2402 (human) [12] came out at 0.0001. Moreover, in the assay with HLA-A*2402 (human) [13], the relative binding ratio (IC50 of standard peptide / IC50 of test peptide) (ratio to standard peptide) is 0.0001.

GMVVLLLVR (modifications not checked) [HPV16 E1 peptide … (position 272, 9 amino acids)]: the binding affinity ratio (IC50 of standard peptide / IC50 of test peptide) in the assay with HLA-A*0301 (human) [10] is 0.0036; with HLA-A*1101 (human) [11] it was 0.0082.

TPTLHEYML (modifications not checked) [HPV16 E7 5 …]: the relative binding ratio with HLA-B*5401 (human) [14] (setting [22]) is 0.0002; with HLA-B*5301 (human) [15] (setting [22]), 0.0001; with HLA-B*5101 (human) [16] (setting [22]), 0.0001; in the assay with HLA-B*0702 (human) [17] (setting [22]) it was 0.11; with HLA-B*3501 (human) [18] (setting [22]), 0.0001.

For the molecule IVYRDGNPY (modifications not checked) [HPV16 E6 59 …], the relative binding ratio (IC50 of standard peptide / IC50 of test peptide) with HLA-A*2402 (human) [12] (setting [22]) is 0.0001. In addition, in the assay with HLA-A*0101 (human), the binding affinity ratio (IC50 of standard peptide / IC50 of test peptide) is 0.0018.

On to YLVSPLSDI (modifications not checked) [HPV16 E1 peptide … (position 90, 9 amino acids)], for which, in [19], the relative binding ratio (IC50 of standard peptide / IC50 of test peptide) (ratio to standard peptide) turned out to be 0.02.

Take ETTDLYCY (modifications not checked) [HPV16 E7 18 ETTDLYCY]: the relative binding ratio (IC50 of standard peptide / IC50 of test peptide) with HLA-A*2402 (human) [12] (setting [22]) was determined as 0.0001. For the same molecule, in the assay with HLA-A*0101 (human), the binding affinity ratio (IC50 of standard peptide / IC50 of test peptide) was 0.078. Besides, in the assay with HLA-A*0301 (human) [20], the relative binding ratio (IC50 of standard peptide / IC50 of test peptide) (ratio to standard peptide) is 0.0002.

Take EPDRAHYNI (modifications not checked): the relative binding ratio is 0.0002 in the assay with HLA-B*5401 (human) [14]; 0.0017 in the assay with HLA-B*5301 (human) [15]; 0.0031 with HLA-B*5101 (human) [16]; 0.0001 in the assay with HLA-B*0702 (human) [17]; 0.0001 with HLA-B*3501 (human) [18].

As to CMCCKCEARI (modifications not checked) [HPV18 E7 position 63, 10-mer …], the binding affinity ratio (IC50 of standard peptide / IC50 of test peptide) in the assay with HLA-A*2402 (human) [2] stood at 0.0001.

With RFEDPTRRPY (modifications not checked) [HPV18 E6 3-12 peptide …], the relative binding ratio (IC50 of standard peptide / IC50 of test peptide) in assay [1] was 0.0002.

QYNKPLCDLL (modifications not checked): in the assay with HLA-A*2402 (human) [12], the relative binding ratio (IC50 of standard peptide / IC50 of test peptide) amounted to 0.0015. Further, the relative binding ratio (IC50 of standard peptide / IC50 of test peptide) (ratio to standard peptide) in the assay with HLA-A*2402 (human) [13] amounted to 0.0015.

On to LSLHEDEDK (modifications not checked) [HPV16 E1 peptide … (position 620, 9 amino acids)], for which the binding affinity ratio (IC50 of standard peptide / IC50 of test peptide) was 0.0005 with HLA-A*0301 (human) [10] and 0.0002 in the assay with HLA-A*1101 (human) [11].

Regarding CMCCKCEARIK (modifications not checked) [HPV18 E7 63-73 peptide …], the relative binding ratio (IC50 of standard peptide / IC50 of test peptide) in [1] was determined as 0.0002; in the assay with HLA-A*0301 (human) [21], 0.0014.

For the molecule PYKLPDLCTEL (modifications not checked) [HPV18 E6 position 11, 11-mer …], the binding affinity ratio (IC50 of standard peptide / IC50 of test peptide) in the assay with HLA-A*2402 (human) [2] was 0.0064.

With IVCPICSQK (modifications not checked) [HPV16 E7 peptide …], the binding affinity ratio (IC50 of standard peptide / IC50 of test peptide) in the assay with HLA-A*6801 (human) (setting [22]) worked out at 0.01; in the assay with HLA-A*0301 (human) [8] (setting [22]) it was 0.0077; with HLA-A*3301 (human) (setting [22]) it was 0.0016; with HLA-A*1101 (human) [9] (setting [22]) it was 0.0065.

With ALYWYRTGI (modifications not checked) [HPV45 E1 peptide … (position 311, 9 amino acids)], the relative binding ratio (IC50 of standard peptide / IC50 of test peptide) in [19] was 0.0032.

Regarding PYAVCDKCLKF (modifications not checked) [HPV16 E6 66 …], the relative binding ratio (IC50 of standard peptide / IC50 of test peptide) in the assay with HLA-A*2402 (human) [12] amounted to 0.11. Also, the relative binding ratio (IC50 of standard peptide / IC50 of test peptide) (ratio to standard peptide) with HLA-A*2402 (human) [13] worked out at 0.11.

Regarding SPLGERLEV (modifications not checked) [HPV18 E1 97 peptide …], the binding affinity ratio (IC50 of standard peptide / IC50 of test peptide) with HLA-B*5401 (human) [14] was 0.0011; with HLA-B*5301 (human) [15], 0.0002; in the assay with HLA-B*5101 (human) [16], 0.0002; in the assay with HLA-B*0702 (human) [17], 0.13; with HLA-B*3501 (human) [18], 0.0003.

ALDGNPISI (modifications not checked) [HPV45 E1 peptide … (position 532, 9 amino acids)]: the relative binding ratio (IC50 of standard peptide / IC50 of test peptide) in [19] is 0.021.

For the molecule NPYAVCDKCL (modifications not checked) [HPV16 E6 65 …], the relative binding ratio with HLA-B*5401 (human) [14], with HLA-B*5301 (human) [15], in the assay with HLA-B*5101 (human) [16], with HLA-B*0702 (human) [17] and in the assay with HLA-B*3501 (human) [18] was 0.0001 each time.

Turning to AICIEKQSR (modifications not checked) [HPV16 E1 peptide … (position 112, 9 amino acids)], in the assay with HLA-A*0301 (human) [21], the relative binding ratio (IC50 of standard peptide / IC50 of test peptide) (ratio to standard peptide) worked out at 0.001. For the same molecule, the binding affinity ratio (IC50 of standard peptide / IC50 of test peptide) with HLA-A*0301 (human) [10] stood at 0.001; in the assay with HLA-A*1101 (human) [11] it was 0.0057.

Turning to VMFLRYQGV (modifications not checked) [HPV16 E1 peptide … (position 443, 9 amino acids)], the relative binding ratio (IC50 of standard peptide / IC50 of test peptide) (ratio to standard peptide) in assay [19] was determined as 0.014.

Take KAAMLAKFK (modifications not checked) [HPV16 E1 peptide … (position 204, 9 amino acids)]: the binding affinity ratio (IC50 of standard peptide / IC50 of test peptide) with HLA-A*0301 (human) [10] came out at 0.11; with HLA-A*1101 (human) [11], 0.18.

Regarding SIPHAACHK (modifications not checked) [HPV18 E6 59-67 peptide …], the relative binding ratio (IC50 of standard peptide / IC50 of test peptide) in assay [1] came to 0.12.

For EPDRAHYNIV (modifications not checked), the relative binding ratio in the assay with HLA-B*5401 (human) [14] (setting [22]), in the assay with HLA-B*5301 (human) [15] (setting [22]), in the assay with HLA-B*5101 (human) [16] (setting [22]), in the assay with HLA-B*0702 (human) [17] (setting [22]) and in the assay with HLA-B*3501 (human) [18] (setting [22]) was 0.0001 each time.
